This is an account of results in US20040092720A1 (US Dept. of Health and Human Services, published 2004).

The chains are these.
B1: Peptide B8 (peptide)
peptide: PRSTPSLTTKAVLL
B2: Peptide E47 (peptide)
peptide: SDKAPCITDWQQEDGTVHRTYLRG
B3: Peptide E11 (peptide)
peptide: LTCNILTFGQLEQNVYGITIISGL
B4: Peptide A6 (peptide)
peptide: AAGSHPSRWAGMGRRL
B5: Peptide D10 (peptide)
peptide: ALKEGKTSMHPPYSLGQLVPE
B6: Peptide D8 (peptide)
peptide: LRFKKTWKLRALKEGKTSMHP
B7: Peptide D9 (peptide)
peptide: TWKLRALKEGKTSMHPPYSLG

One experiment concerns the target T1, recombinant human IL-6 (human, UniProt P05231 30-212, labeled with radioactive iodine).
T1 construct: Labeled probe in solution, added to wells that carry the synthetic peptides; also called IL-6 ligand; Interleukin-6
Briefly: radioiodinated IL-6 on peptide array.
Target sequence in this assay (P05231 30-212 limits assumed): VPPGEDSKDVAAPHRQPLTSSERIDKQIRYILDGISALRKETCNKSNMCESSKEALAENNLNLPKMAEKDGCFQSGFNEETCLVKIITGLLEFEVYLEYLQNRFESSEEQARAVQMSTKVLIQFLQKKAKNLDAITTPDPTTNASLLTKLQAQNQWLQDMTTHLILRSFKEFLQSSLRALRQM
As for B1, the Counts/minute bound (counts/minute) worked out at 1850. Consider B2, for which the Counts/minute bound (counts/minute) was determined as 2080.

Regarding B3, the Counts/minute bound (counts/minute) came out at 1820. For the molecule B4, the Counts/minute bound (counts/minute) came to 1750.

The target of another experiment is T1, recombinant human IL-6. Briefly: radioiodinated IL-6 on peptide array; experiment D1-D10. As to the method:
Synthetic peptide arrays were constructed in 96-well microtiter plates in accordance with the method set forth in WO 91/02714 (Saxinger), and used to test the binding of recombinant human IL-6 that had been labeled with radioactive iodine (radiolabeling by standard methods). After incubating the radiolabeled IL-6 ligand in a well with each synthetic peptide, a washing step was performed to remove unbound label, and the relative level of radioactivity remaining in each well of the plate was evaluated to determine the relative affinity of each peptide for IL-6 ligand.
Take B5: the Counts/minute bound was 4970 counts/minute. Still for that read-out and setting: as for B6, the figure is 20400 counts/minute; as for B7, 5530 counts/minute.
